# Experiment: soluble on expression in E. coli; label from the status in PepcDB or PDB records
row,Sequence,soluble on expression in E. coli
1,MQRIELLPLVLDNQTFFQNCPDIIPRIIPFSPCLDGSEVNFICGPLHTGKTSFLRQVAGSLQGLKVYINFEDSRFRDLKPETLQEIKEIAAEYCIKGPEDEEGLAGKDIDDKERPEVPVSYFLDEIHYLPGWGDRVYSLQNDGARVFVTSSSAGIISKEISSRFADGIKIIRLLPFSFKEYLTLKGLRVPRPNFLTPSRCDEMLCLFLQYFENGGFPEIIKSGDFRLSRKYFEETLQKEIIERHTIQDPEGLKKLAVFLISNMASEYSIDTLKRAGGIKDEATVRNYLDYLEEAFLLYRVPMFRHKSEKPDYGKEGENENERESNIPCKVYAGDTGFFKSVFPRYPDSLGLRFENLVFLELLRKGKQVYYFHNTRECDFLIAEKESQKVTAAVQVCLCFGGTAVREREVLGLMEAMEEFGLNEGLILTMDDEEVMEIEGKDGENKRIIINSVWKWMLELEHHHHHH,not soluble
2,MQRRLERFDAKLVQSGLDALLVTGQNNIYYLTDFWGTNATVFITKNRRLFLTDSRYTLIAKQSVHGFDIIESKDPLKDIVKFVEVDKLETIGFDNQVSFAYYQALQAIFEGYTLSPQTNFMEELRMIK,soluble
3,MQRVDLNSDLGESFGAYTIGQDDRVLEHVTSANIACGYHAGDHNVMARTVKLAADKGMGIGAHPGFPDLLGFGRRNIQTDHKDIYNFIVYQVAALNGFCQLHRVRMQHVKPHGALYNMAAKDRVIAEAIAEAIYDIDPSLILFGLSGSELIKAGKKLGLTVANEVFADRTYQPDGTLTPRSEANALIKESERATEQVIQMVKESKVIAVDGSHIPIEADTICVHGDSPTALSFIERLHAQLQVEGVTVTKVSDFLFKLEHHHHHH,not soluble
4,MQSPPHDPASALAIRNHYRQSQSRAARLRLLVDTGQELIQLPPEAMRKCVLQRACAFVAMDHGLLLEWGADNGVQTTARHGSKERLSTLETTADPLAIGPQWLERPGTHLPCVLLLPLRGADEGSFGTLVLANSVAISAPDGEDIESLQLLATLLAAHLENNRLLEALVARDRT,not soluble
5,MQTEHVILLNAQGVPTGTLEKYAAHTADTRLHLAFSSWLFNAKGQLLVTRRALSKKAWPGVWTNSVCGHPQLGESNEDAVIRRCRYELGVEITPPESIYPDFRARATDPSGIVENEVCPVFAARTTSALQINDDEVMDYQWCDLADVLHGIDATPWAFSPWMVMQATNREARKRLSAFTQLKLEHHHHHH,soluble
6,MQTLQEILQQPELENKLLNQAKTVGFVTAMACCPNVLPPEEWLPFLWGGEEIAPFSDPIQLENYFEHIIALWNETRSQLLEGNWQWPTGYLLDEAEIVNQEVRDFCEGMLQGWQLARDDWEVLMPENSSDNTLLGGVLLSLSMLYDPETSIATLYEQGFTGLEQFAEIYHAIPVMLCGITQRGVTLAEAQ,not soluble
7,MQTLTVVGLGRLGRSLGRLAADSGAYRLLDLMGRRAQPLAEGRDFVGAGRPVSEMRQLAPADLYLLAVPDAAIASCARGLAAAGVAPAGSVVFHASGVGDASLLRPLAEQGVLTASLHPAFSFADPKRAVEGFAGTLCALEGDEQACLRLEAFARALGGRPFRLAPGGKAAYHAGLSVASNFLVALTAMAGQLTARAGVPPELARQLLGGLMRQTLDNALELGPYDALTGPILRGDIGTVERHLEVLADTGLISAYRTLGRQVVELAGERLQEPARQQLLALLYLEHHHHHH,soluble
8,MQVIRKPTRMLSGVTIVSIMTHPHSCPHGKCVFCPGGVDVDTPQSYYGREPTLMRAIENDYDPFHQVQSRLRQYVENGHTPSKVELIIMGGTFLSLPIDYQDWFVTYALEAMNRFPSYDKPSFVYLEDAQVKNEKAEVRCVGMTIETKPDWAKEWHADQMLRLGATKVELGVQTVYDDILKFTNRGHTVKDSIESTRILKDSGFKVVYHVMLGLPKSDPDKDLEAFKTIFSDPNFRPDMLKIYPTLVVETAPLANLWRRGLYKPYGTETLIELISEMYRYIPKWVRVMRIQRDIPANVILDGNKKGNLRELVEKKVLEKGIKINEIRFREVGMMWQHRGLLPDHTKIHLYKEVYEASEGTEIFLSFEDEKEILIGYLRLRITSNKAHRKEIDGKTAIVRELHVYGIEVPIGSWDELGFQHRGYGSKLLSEAEKIAREEFDMRKISVLSGIGAREYYAKRGYVKEGPYMSKQLI,not soluble
9,MQVTYKGRPIRITPDFSPETMKARRAWTDVIQTLREHKCQPRLLYPAKLSITIDGETKVFHDKTKFTQYLSTNPALQRIITEKKQYKD,soluble

# Source: the DeepSol protein solubility set
